Assay results from US6458929 (LICENTIA, dated 2002).

Key:
[1] = biological target: T1, myotilin (full length, 498 residues) (human, UniProt Q9UBF9 1-498); assay: yeast two-hybrid
T1 construct: In the yeast two-hybrid assay, full-length myotilin was expressed as a bait (EG202) or prey (JG4-5) fusion protein; In Western blots and staining it was the endogenous muscle protein; also called full-length myotilin
T1 sequence: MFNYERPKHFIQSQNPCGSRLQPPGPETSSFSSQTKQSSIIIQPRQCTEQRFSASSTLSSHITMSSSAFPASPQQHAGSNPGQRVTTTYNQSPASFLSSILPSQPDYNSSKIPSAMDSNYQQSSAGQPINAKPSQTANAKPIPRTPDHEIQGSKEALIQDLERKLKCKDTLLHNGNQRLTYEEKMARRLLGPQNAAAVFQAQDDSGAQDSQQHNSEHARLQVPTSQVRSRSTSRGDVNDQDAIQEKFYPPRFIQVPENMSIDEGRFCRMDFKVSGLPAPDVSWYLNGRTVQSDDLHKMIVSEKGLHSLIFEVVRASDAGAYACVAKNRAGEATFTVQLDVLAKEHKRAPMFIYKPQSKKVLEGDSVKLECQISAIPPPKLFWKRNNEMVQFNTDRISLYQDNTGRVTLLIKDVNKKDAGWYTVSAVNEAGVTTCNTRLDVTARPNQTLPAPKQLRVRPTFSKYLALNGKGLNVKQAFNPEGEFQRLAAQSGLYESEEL
Method: (§1) The COOH-terminal construct of myotilin was subcloned from a partial cDNA sequence obtained from the skeletal muscle library screen. The authentity of the constructs was verified by sequencing. The genotype of the S. cerevisiae strain BOY1, kindly provided by P. Ljungdahl, Ludwig Institute for Cancer Research, Stockholm, Sweden, is MATαhis3 trp1 leu2::6LexAop-LEU2 URA3::8LexAop-Gal1-LacZ. Boy1 mating type a was made using the YCPHO CUT4 plasmid. Yeast strains were grown at 30° C. in rich medium or in synthetic minimal medium with appropriate amino acid supplements. Bait and prey constructs were transformed into BOY1-yeast of both a and a mating type using the TRAFO protocol and plated on selection plates. Clones were grown to late logarithmic phase in selective medium. For analysis of fusion protein expression, yeast cells from 1 ml of overnight culture were lysed in reducing Laemmli sample buffer, the samples were boiled and analyzed by SDS-PAGE and immunoblotting. Baits and preys were grown on selection plates, replica plated together on rich media plates for mating overnight and replica plated on double (tryptophane and histidine) or triple (tryptophane, histidine and leucine) selection with or without 5-bromo-4-chloro-3-indolyl-β-D-galactopyranoside (X-gal)(Boehringer) for selection of interactions.

[2] = biological target: T2, spectrin-like repeats R1-R4 (residues 267-749) of chicken smooth muscle α-actinin (chicken, UniProt P05094 267-749); assay: yeast two-hybrid
T2 construct: range 267-749; Expressed as a bait (EG202) or prey (JG4-5) fusion protein in the yeast two-hybrid assay; also called α-actinin (R1-R4)
Method: as §1

T2 sequence (P05094 267-749 limits assumed): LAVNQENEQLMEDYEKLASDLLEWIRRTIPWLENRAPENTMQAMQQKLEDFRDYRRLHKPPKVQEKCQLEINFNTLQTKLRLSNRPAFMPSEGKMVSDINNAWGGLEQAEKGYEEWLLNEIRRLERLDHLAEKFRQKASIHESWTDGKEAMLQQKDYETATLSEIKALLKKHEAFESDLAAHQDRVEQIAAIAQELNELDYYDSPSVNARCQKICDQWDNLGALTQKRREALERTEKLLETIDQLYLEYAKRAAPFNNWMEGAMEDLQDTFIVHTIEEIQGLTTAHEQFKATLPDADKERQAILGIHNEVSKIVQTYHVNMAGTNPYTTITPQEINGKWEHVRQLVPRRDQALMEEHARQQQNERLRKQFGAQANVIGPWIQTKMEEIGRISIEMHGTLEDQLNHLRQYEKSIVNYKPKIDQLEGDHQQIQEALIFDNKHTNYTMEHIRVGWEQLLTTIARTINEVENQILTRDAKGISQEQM

binding result [1]: binds
binding result [2]: no binding
B1: myotilin215-498 (other)
chain: SEHARLQVPTSQVRSRSTSRGDVNDQDAIQEKFYPPRFIQVPENMSIDEGRFCRMDFKVSGLPAPDVSWYLNGRTVQSDDLHKMIVSEKGLHSLIFEVVRASDAGAYACVAKNRAGEATFTVQLDVLAKEHKRAPMFIYKPQSKKVLEGDSVKLECQISAIPPPKLFWKRNNEMVQFNTDRISLYQDNTGRVTLLIKDVNKKDAGWYTVSAVNEAGVTTCNTRLDVTARPNQTLPAPKQLRVRPTFSKYLALNGKGLNVKQAFNPEGEFQRLAAQSGLYESEEL
notes: Expressed in the yeast two-hybrid assay as a prey fusion protein in JG4-5; it could not be expressed as a bait; also called NH2-terminal deletion construct containing the Ig-domains
